# From the supplement of paper PMC10567573
# B1: FCHO1 (parent)
# chain: FTSSPSPFSSSSPENVEDSGLDSP
# Variants of: B1
# Experiment: protein stability index of a GFP-peptide fusion (GPS, HEK-293T) (PSI 1-6); higher = more stable
# Conditions: c terminus: a fixed tail appended
# 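Note: lentivirally expressed fusions sorted by FACS into six bins by GFP to DsRed ratio, PSI derived from sequencing read proportions per bin multiplied by bin number.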
row,Variant,protein stability index
1,FTSSPSPFSSSSPEQVEDSGLDSP,1.81
2,FTSSPSPFSSSSPEIVEDSGLDSP,2.05
3,FTSSPSPFSSSSPEMVEDSGLDSP,2.57
4,FTSSPSPFSSSSPEKVEDSGLDSP,1.43
5,FTSSPSPFSSSSPEDVEDSGLDSP,2.25
6,FTSSPSPFSSSSPETVEDSGLDSP,2.04
7,FTSSPSPFSSSSPELVEDSGLDSP,2.01
8,FTSSPSPFSSSSPEWVEDSGLDSP,2.39
9,FTSSPSPFSSSSPESVEDSGLDSP,2.33
10,FTSSPSPFSSSSPEFVEDSGLDSP,1.73
11,FTSSPSPFSSSSPEEVEDSGLDSP,1.82
12,FTSSPSPFSSSSPEGVEDSGLDSP,1.64
13,FTSSPSPFSSSSPEAVEDSGLDSP,2.13
14,FTSSPSPFSSSSPECVEDSGLDSP,2.24
15,FTSSPSPFSSSSPEPVEDSGLDSP,2.95
16,FTSSPSPFSSSSPEYVEDSGLDSP,1.6
17,FTSSPSPFSSSSPEVVEDSGLDSP,2.46
18,FTSSPSPFSSSSPERVEDSGLDSP,1.71
19,FTSSPSPFSSSSPEHVEDSGLDSP,1.66
20,FTSSPSPFSSSSPENVEDSILDSP,1.97
21,FTSSPSPFSSSSPENVEDSYLDSP,2.33
22,FTSSPSPFSSSSPENVEDSRLDSP,1.91
23,FTSSPSPFSSSSPENVEDSELDSP,2.04
24,FTSSPSPFSSSSPENVEDSMLDSP,2.07

row,Variant,protein stability index
1,FTSSPSPFSSSSPENVEDSTLDSP,3.02
2,FTSSPSPFSSSSPENVEDSHLDSP,2.43
3,FTSSPSPFSSSSPENVEDSPLDSP,1.86
4,FTSSPSPFSSSSPENVEDSLLDSP,2.07
5,FTSSPSPFSSSSPENVEDSDLDSP,1.88
6,FTSSPSPFSSSSPENVEDSWLDSP,1.56
7,FTSSPSPFSSSSPENVEDSVLDSP,1.64
8,FTSSPSPFSSSSPENVEDSNLDSP,1.98
9,FTSSPSPFSSSSPENVEDSSLDSP,2.09
10,FTSSPSPFSSSSPENVEDSQLDSP,1.99
11,FTSSPSPFSSSSPENVEDSFLDSP,2.32
12,FTSSPSPFSSSSPENVEDSCLDSP,2.31
13,FTSSPSPFSSSSPENVEDSKLDSP,2.87
14,FTSSPSPFSSSSPENVEDSALDSP,1.88
15,FTSSPSPFSSSSPENFEDSGLDSP,1.75
16,FTSSPSPFSSSSPENPEDSGLDSP,1.6
17,FTSSPSPFSSSSPENNEDSGLDSP,1.86
18,FTSSPSPFSSSSPENSEDSGLDSP,2.15
19,FTSSPSPFSSSSPENYEDSGLDSP,2.03
20,FTSSPSPFSSSSPENWEDSGLDSP,2.16
21,FTSSPSPFSSSSPENQEDSGLDSP,1.91
22,FTSSPSPFSSSSPENREDSGLDSP,2.08
23,FTSSPSPFSSSSPENHEDSGLDSP,2.27
24,FTSSPSPFSSSSPENMEDSGLDSP,1.68

row,Variant,protein stability index
1,FTSSPSPFSSSSPENTEDSGLDSP,2.52
2,FTSSPSPFSSSSPENIEDSGLDSP,2.25
3,FTSSPSPFSSSSPENLEDSGLDSP,1.7
4,FTSSPSPFSSSSPENKEDSGLDSP,1.9
5,FTSSPSPFSSSSPENAEDSGLDSP,2.47
6,FTSSPSPFSSSSPENCEDSGLDSP,2.44
7,FTSSPSPFSSSSPENDEDSGLDSP,2.39
8,FTSSPSPFSSSSPENGEDSGLDSP,2.75
9,FTSSPSPFSSSSPENEEDSGLDSP,1.81
10,FTSSPSPFSSSSPENVEDSGLDFP,2.18
11,FTSSPSPFSSSSPENVEDSGLDNP,1.78
12,FTSSPSPFSSSSPENVEDSGLDCP,1.68
13,FTSSPSPFSSSSPENVEDSGLDVP,1.56
14,FTSSPSPFSSSSPENVEDSGLDLP,2.6
15,FTSSPSPFSSSSPENVEDSGLDAP,2.06
16,FTSSPSPFSSSSPENVEDSGLDPP,2.27
17,FTSSPSPFSSSSPENVEDSGLDIP,1.91
18,FTSSPSPFSSSSPENVEDSGLDTP,1.8
19,FTSSPSPFSSSSPENVEDSGLDDP,2.18
20,FTSSPSPFSSSSPENVEDSGLDWP,2.12
21,FTSSPSPFSSSSPENVEDSGLDHP,2.44
22,FTSSPSPFSSSSPENVEDSGLDMP,1.68
23,FTSSPSPFSSSSPENVEDSGLDRP,1.79
24,FTSSPSPFSSSSPENVEDSGLDKP,2.17

row,Variant,protein stability index
1,FTSSPSPFSSSSPENVEDSGLDEP,1.88
2,FTSSPSPFSSSSPENVEDSGLDQP,2.66
3,FTSSPSPFSSSSPENVEDSGLDYP,1.37
4,FTSSPSPFSSSSPENVEDSGLDGP,1.81
5,FTSSPSPFSSSSPENVMDSGLDSP,2.32
6,FTSSPSPFSSSSPENVLDSGLDSP,1.88
7,FTSSPSPFSSSSPENVFDSGLDSP,2.21
8,FTSSPSPFSSSSPENVCDSGLDSP,1.68
9,FTSSPSPFSSSSPENVADSGLDSP,1.5
10,FTSSPSPFSSSSPENVTDSGLDSP,2.26
11,FTSSPSPFSSSSPENVNDSGLDSP,2.1
12,FTSSPSPFSSSSPENVVDSGLDSP,1.3
13,FTSSPSPFSSSSPENVSDSGLDSP,2.53
14,FTSSPSPFSSSSPENVPDSGLDSP,1.8
15,FTSSPSPFSSSSPENVWDSGLDSP,1.65
16,FTSSPSPFSSSSPENVDDSGLDSP,1.84
17,FTSSPSPFSSSSPENVHDSGLDSP,1.98
18,FTSSPSPFSSSSPENVGDSGLDSP,1.96
19,FTSSPSPFSSSSPENVIDSGLDSP,1.67
20,FTSSPSPFSSSSPENVRDSGLDSP,1.86
21,FTSSPSPFSSSSPENVYDSGLDSP,2.23
22,FTSSPSPFSSSSPENVKDSGLDSP,1.78
23,FTSSPSPFSSSSPENVQDSGLDSP,1.85
24,FTSSPSPFSSSSPENVEDCGLDSP,2.22

row,Variant,protein stability index
1,FTSSPSPFSSSSPENVEDLGLDSP,2.32
2,FTSSPSPFSSSSPENVEDWGLDSP,1.57
3,FTSSPSPFSSSSPENVEDEGLDSP,1.81
4,FTSSPSPFSSSSPENVEDRGLDSP,2.39
5,FTSSPSPFSSSSPENVEDFGLDSP,2.24
6,FTSSPSPFSSSSPENVEDVGLDSP,2
7,FTSSPSPFSSSSPENVEDAGLDSP,2.04
8,FTSSPSPFSSSSPENVEDDGLDSP,1.9
9,FTSSPSPFSSSSPENVEDHGLDSP,2.46
10,FTSSPSPFSSSSPENVEDNGLDSP,2.06
11,FTSSPSPFSSSSPENVEDPGLDSP,2.26
12,FTSSPSPFSSSSPENVEDKGLDSP,1.95
13,FTSSPSPFSSSSPENVEDYGLDSP,2.78
14,FTSSPSPFSSSSPENVEDQGLDSP,2.21
15,FTSSPSPFSSSSPENVEDMGLDSP,1.5
16,FTSSPSPFSSSSPENVEDGGLDSP,1.64
17,FTSSPSPFSSSSPENVEDTGLDSP,2.34
18,FTSSPSPFSSSSPENVEDIGLDSP,2.27
19,FTSSPSPFSSSSPYNVEDSGLDSP,1.72
20,FTSSPSPFSSSSPRNVEDSGLDSP,1.61
21,FTSSPSPFSSSSPWNVEDSGLDSP,2.78
22,FTSSPSPFSSSSPINVEDSGLDSP,1.9
23,FTSSPSPFSSSSPSNVEDSGLDSP,2.17
24,FTSSPSPFSSSSPHNVEDSGLDSP,1.95

row,Variant,protein stability index
1,FTSSPSPFSSSSPLNVEDSGLDSP,2.22
2,FTSSPSPFSSSSPMNVEDSGLDSP,2.05
3,FTSSPSPFSSSSPPNVEDSGLDSP,1.94
4,FTSSPSPFSSSSPVNVEDSGLDSP,2.15
5,FTSSPSPFSSSSPKNVEDSGLDSP,2.1
6,FTSSPSPFSSSSPTNVEDSGLDSP,1.84
7,FTSSPSPFSSSSPQNVEDSGLDSP,2.31
8,FTSSPSPFSSSSPNNVEDSGLDSP,2.14
9,FTSSPSPFSSSSPENVEMSGLDSP,1.99
10,FTSSPSPFSSSSPENVEPSGLDSP,2.01
11,FTSSPSPFSSSSPENVEASGLDSP,1.62
12,FTSSPSPFSSSSPENVEFSGLDSP,2.26
13,FTSSPSPFSSSSPENVENSGLDSP,2.42
14,FTSSPSPFSSSSPENVEKSGLDSP,1.91
15,FTSSPSPFSSSSPENVELSGLDSP,2.05
16,FTSSPSPFSSSSPENVEQSGLDSP,1.93
17,FTSSPSPFSSSSPENVEYSGLDSP,2.27
18,FTSSPSPFSSSSPENVEGSGLDSP,1.83
19,FTSSPSPFSSSSPENVERSGLDSP,1.6
20,FTSSPSPFSSSSPENVECSGLDSP,2.17
21,FTSSPSPFSSSSPENVETSGLDSP,2.03
22,FTSSPSPFSSSSPENVEVSGLDSP,1.73
23,FTSSPSPFSSSSPENVEWSGLDSP,1.92
24,FTSSPSPFSSSSPENVEESGLDSP,1.92

row,Variant,protein stability index
1,FTSSPSPFSSSSPENVEHSGLDSP,2.7
2,FTSSPSPFSSSSPENVESSGLDSP,1.82
3,FTSSPSPFSSSSPENVEISGLDSP,2.01
4,FTSSPSPFSSSSPENVEDSGLDSC,2.99
5,FTSSPSPFSSSSPENVEDSGLDSA,1.38
6,FTSSPSPFSSSSPENVEDSGLDSD,1.85
7,FTSSPSPFSSSSPENVEDSGLVSP,2.43
8,FTSSPSPFSSSSPENVEDSGLYSP,2.42
9,FTSSPSPFSSSSPENVEDSGLKSP,1.74
10,FTSSPSPFSSSSPENVEDSGLSSP,1.78
11,FTSSPSPFSSSSPENVEDSGLMSP,1.48
12,FTSSPSPFSSSSPENVEDSGLFSP,1.31
13,FTSSPSPFSSSSPENVEDSGLQSP,1.83
14,FTSSPSPFSSSSPENVEDSGLWSP,2.62
15,FTSSPSPFSSSSPENVEDSGLASP,2
16,FTSSPSPFSSSSPENVEDSGLCSP,2.47
17,FTSSPSPFSSSSPENVEDSGLGSP,1.86
18,FTSSPSPFSSSSPENVEDSGLTSP,2.18
19,FTSSPSPFSSSSPENVEDSGLNSP,2.96
20,FTSSPSPFSSSSPENVEDSGLRSP,2.04
21,FTSSPSPFSSSSPENVEDSGLHSP,2.29
22,FTSSPSPFSSSSPENVEDSGLPSP,2.23
23,FTSSPSPFSSSSPENVEDSGLESP,2.6
24,FTSSPSPFSSSSPENVEDSGLLSP,2.14

row,Variant,protein stability index
1,FTSSPSPFSSSSPENVEDSGLISP,2.11
2,FTSSPSPFSSSSPENVEDSGADSP,1.49
3,FTSSPSPFSSSSPENVEDSGWDSP,1.7
4,FTSSPSPFSSSSPENVEDSGMDSP,2.84
5,FTSSPSPFSSSSPENVEDSGHDSP,2.27
6,FTSSPSPFSSSSPENVEDSGRDSP,2.21
7,FTSSPSPFSSSSPENVEDSGSDSP,1.81
8,FTSSPSPFSSSSPENVEDSGFDSP,2.07
9,FTSSPSPFSSSSPENVEDSGVDSP,2.01
10,FTSSPSPFSSSSPENVEDSGYDSP,2.19
11,FTSSPSPFSSSSPENVEDSGGDSP,2.12
12,FTSSPSPFSSSSPENVEDSGCDSP,2.23
13,FTSSPSPFSSSSPENVEDSGNDSP,2.28
14,FTSSPSPFSSSSPENVEDSGDDSP,2.06
15,FTSSPSPFSSSSPENVEDSGTDSP,2.52
16,FTSSPSPFSSSSPENVEDSGPDSP,2.14
17,FTSSPSPFSSSSPENVEDSGIDSP,2.87
18,FTSSPSPFSSSSPENVEDSGQDSP,2.03
19,FTSSPSPFSSSSPENVEDSGKDSP,2.02
20,FTSSPSPFSSSSPENVEDSGEDSP,1.95
